The results in this text go back to article PMC7078472.

What all share (experiment): MYTH (membrane yeast two-hybrid) quantitative β-Gal activity assay
Experiment [1] deals with TbMCU bait for MYTH (without MTS, SUC signal sequence, Cub-LexA-VP16). The following applies: yeast strain NMY51; n = 3; 6 colonies for each independent experiment; parent: est. 140; read off a plot.
Experiment [2] deals with TbATPc prey for MYTH (T. brucei ATP synthase subunit c without MTS, NubG-HA; identical to TcATPc). The note with it: yeast strain NMY51, n = 3, 6 colonies for each independent experiment, read off a plot.
Experiment [3] has the same target. The following applies: yeast strain NMY51; n = 3; 6 colonies for each independent experiment; parent: est. 150; read off a plot.
Experiment [4] concerns the target TbMCUc bait for MYTH (Cub-LexA-VP16). The following applies: yeast strain NMY51; n = 3; 6 colonies for each independent experiment; parent: est. 140; read off a plot.
Experiment [5] addresses TbMCU bait for MYTH (without MTS, SUC signal sequence, Cub-LexA-VP16). The following applies: yeast strain NMY51; n = 3; 6 colonies for each independent experiment; parent: est. 140; read off a plot. The source holds these as a separate data set.
Experiment [6] has as its target T. cruzi MCU (TcMCU) bait for MYTH (Cub-LexA-VP16). The note with it: yeast strain NMY51; n = 3; 6 colonies for each independent experiment; parent: est. 180; read off a plot.
The target of experiment [7] is TbMCUd bait for MYTH (Cub-LexA-VP16). The note with it: yeast strain NMY51; n = 3; 6 colonies for each independent experiment; parent: est. 180; read off a plot.

Turning to “TbATPc prey for MYTH (T. brucei ATP synthase subunit c without MTS, NubG-HA; identical to TcATPc) F98L; E102A; F107L; F113L”, the response in experiment [1] came out at 88 units.

Regarding “T. cruzi MCU (TcMCU) bait for MYTH (Cub-LexA-VP16)”, the response in experiment [2] (parent: est. 180) was determined as 32 units.

On to “TbMCUc bait for MYTH (Cub-LexA-VP16) Q161A; V164P; L165P; F170A”, for which the response in experiment [2] (parent: est. 140) was determined as 30 units.

For the substance “TbMCU bait for MYTH (without MTS, SUC signal sequence, Cub-LexA-VP16) Q213A; V216P; I217P; F222A”, the response in experiment [3] came to 27 units; in experiment [2] (parent: est. 140), 28 units.

With TbMCUd bait for MYTH (Cub-LexA-VP16), the response in experiment [2] (parent: est. 180) came to 27 units.

With “TbMCUd bait for MYTH (Cub-LexA-VP16) R123A; V126P; L127P; Y132A”, in experiment [2] (parent: est. 180), the response is 34 units.

With “TbMCU bait for MYTH (without MTS, SUC signal sequence, Cub-LexA-VP16)”, the response in experiment [2] (parent: est. 140) was found to be 26 units.

Consider “T. cruzi MCU (TcMCU) bait for MYTH (Cub-LexA-VP16) Q208A; I211P; I212P; F217A”, for which the response in experiment [2] (parent: est. 180) is 34 units.

As to “TbATPc prey for MYTH (T. brucei ATP synthase subunit c without MTS, NubG-HA; identical to TcATPc) G64L; G66L; G68L; G70L”, the response amounted to 45 units in experiment [1]; 43 units in experiment [4]; 44 units in experiment [5]; 58 units in experiment [6]; 58 units in experiment [7].

Regarding TbMCUc bait for MYTH (Cub-LexA-VP16), the response in experiment [2] (parent: est. 140) came to 29 units.

For the substance “TbATPc prey for MYTH (T. brucei ATP synthase subunit c without MTS, NubG-HA; identical to TcATPc) G64A; G66A; G68A; G70A”, the response in experiment [1] came to 69 units.

Consider “TbMCU bait for MYTH (without MTS, SUC signal sequence, Cub-LexA-VP16) Y235A; F236A; T241E; Y248A”, for which the response in experiment [3] was 120 units.

In the case of “TbATPc prey for MYTH (T. brucei ATP synthase subunit c without MTS, NubG-HA; identical to TcATPc) F98L; F107L; F113L”, the response in experiment [1] came out at 130 units.

As to “TbMCU bait for MYTH (without MTS, SUC signal sequence, Cub-LexA-VP16) V216P; I217P”, in experiment [3], the response is 34 units.
